Measurements: patent US9757468B2, “Intranasal administration of guanidinylated aminoglycosides” (The Regents of the University of California, priority 2013, dated 2017)
Like-named read-outs stand apart in the source and are kept apart here.

Legend:
brain = details: in vivo; cited from earlier work
[1] = test system: α-iduronidase-deficient mice (Idua−/−; Homozygote); experiment: Brain enzyme activity one hour after intranasal administration of forms of iduronidase; details: 2 mg/kg, FIG. 1
[2] = test system: mouse model of mucopolysaccharidosis (MPS) type I; experiment: Reduction of brain glycosaminoglycans by intranasal treatment (carbazole assay); format: in vivo; details: intranasal 1 mg/kg every other day for two weeks, MPS I mice, *p<0.05, FIG. 3
Method: A mouse model of mucopolysaccharidosis (MPS) type I, which is null for the lysosomal enzyme, α-L-iduronidase (IDUA), was used to measure the amount of glycosaminoglycans in the brain following intranasal administration of 1 mg/kg IDUA or GNeo-AP-IDUA every other day for two weeks. Quantification of glycoaminoglycan was performed using the carbazole assay. […] Data are represented as mean±SD (n=5 or 6). One-way analysis of variance (ANOVA) with Tukey's post-hoc analysis for comparison was applied for data analysis (*p<0.05).

[3] = test system: α-iduronidase-deficient mice (Idua−/−; Homozygote); details: mouse, in vivo, 2 mg/kg
[4] = test system: α-iduronidase-deficient mice (Idua−/−; Homozygote); details: mouse, in vivo
Method: One hour following administration the mice were sacrificed and their brains were removed and dissected to isolate tissue from the olfactory bulb, the cerebral cortex, and “other parts of the brain.” The total amount of tissue protein recovered from these various portions was ˜1 mg, ˜25 mg, and ˜50 mg, respectively. The various tissues were then assayed for IDUA activity, which was expressed relative to the wet weight of each part of brain.

[5] = test system: sulfamidase deficient mice (Sgsh−/−); experiment: Brain enzyme activity one hour after intranasal administration of sulfamidase forms; details: 2 mg/kg, FIG. 4
[6] = test system: sulfamidase deficient mice (Sgsh−/−); details: mouse, in vivo, 2 mg/kg

B1: IDUA: recombinant enzyme iduronidase (Aldurazyme), not conjugated to guanidinoneomycin (protein, UniProt P35475 28-653, looked up)
Alpha-L-iduronidase: APHLVHVDAARALWPLRRFWRSTGFCPPLPHSQADQYVLSWDQQLNLAYVGAVPHRGIKQVRTHWLLELVTTRGSTGRGLSYNFTHLDGYLDLLRENQLLPGFELMGSASGHFTDFEDKQQVFEWKDLVSSLARRYIGRYGLAHVSKWNFETWNEPDHHDFDNVSMTMQGFLNYYDACSEGLRAASPALRLGGPGDSFHTPPRSPLSWGLLRHCHDGTNFFTGEAGVRLDYISLHRKGARSSISILEQEKVVAQQIRQLFPKFADTPIYNDEADPLVGWSLPQPWRADVTYAAMVVKVIAQHQNLLLANTTSAFPYALLSNDNAFLSYHPHPFAQRTLTARFQVNNTRPPHVQLLRKPVLTAMGLLALLDEEQLWAEVSQAGTVLDSNHTVGVLASAHRPQGPADAWRAAVLIYASDDTRAHPNRSVAVTLRLRGVPPGPGLVYVTRYLDNGLCSPDGEWRRLGRPVFPTAEQFRRMRAAEDPVAAAPRPLPAGGRLTLRPALRLPSLLLVHVCARPEKPPGQVTRLRALPLTQGQLVLVWSDEHVGSKCLWTYEIQFSQDGKAYTPVSRKPSTFNLFVFSPDTGAVSGSYRVRALDYWARPGPFSDPVPYLEVPVPRGPPSPGNP
levels of enzyme in the brain after intranasal delivery (brain): extremely low
enzyme activity in brain extracts (uptake into the brain) [1]: not taken up efficiently

B2: GNeo-AP-IDUA: iduronidase (Aldurazyme) treated with alkaline phosphatase to remove mannose-6-phosphate groups, then conjugated to guanidinoneomycin via GNeo-NHS (conjugate, UniProt P35475 28-653, looked up)
Alpha-L-iduronidase: B1 Alpha-L-iduronidase
modifications: guanidinoneomycin conjugate; alkaline phosphatase modified
total GAG level in the mouse brain compared with untreated mouse brains [2]: significantly decreased
enzyme activity in brain extracts (uptake into the brain) [3]: significantly more enzymatic activity
dose at which uptake into the olfactory bulb (OB) and cerebral cortex (CC) saturated [4]: ~1 mg/kg
enzyme concentration in the OB versus the CC, based on enzyme specific activity (nmols/hr/mg of tissue protein) [4]: much greater than in the CC
share of the administered dose in Other parts of the Brain [4]: ~64%
share of the administered dose in the CC [4]: ~23%
share of the administered dose in the OB [4]: ~13%

B3: AP-IDUA: iduronidase modified with alkaline phosphatase only, not conjugated to GNeo (protein, UniProt P35475 28-653, looked up)
Alpha-L-iduronidase: B1 Alpha-L-iduronidase
modifications: alkaline phosphatase modified
enzyme activity in brain extracts (uptake into the brain) [1]: does not appear to facilitate efficient transport into the brain

B4: GNeo-SGSH: Sulfamidase (SGSH) conjugated to guanidinoneomycin (conjugate, UniProt P51688 21-502, looked up)
N-sulphoglucosamine …: RPRNALLLLADDGGFESGAYNNSAIATPHLDALARRSLLFRNAFTSVSSCSPSRASLLTGLPQHQNGMYGLHQDVHHFNSFDKVRSLPLLLSQAGVRTGIIGKKHVGPETVYPFDFAYTEENGSVLQVGRNITRIKLLVRKFLQTQDDRPFFLYVAFHDPHRCGHSQPQYGTFCEKFGNGESGMGRIPDWTPQAYDPLDVLVPYFVPNTPAARADLAAQYTTVGRMDQGVGLVLQELRDAGVLNDTLVIFTSDNGIPFPSGRTNLYWPGTAEPLLVSSPEHPKRWGQVSEAYVSLLDLTPTILDWFSIPYPSYAIFGSKTIHLTGRSLLPALEAEPLWATVFGSQSHHEVTMSYPMRSVQHRHFRLVHNLNFKMPFPIDQDFYVSPTFQDLLNRTTAGQPTGWYKDLRHYYYRARWELYDRSRDPHETQNLATDPRFAQLLEMLRDQLAKWQWETHDPWVCAPDGVLEEKLSPQCQPLHNEL
modifications: guanidinoneomycin conjugate
enzyme activity in brain extracts (uptake into the brain) ([5]; one hour after administration): rapid uptake into the brain
level of activity in the olfactory bulb of brain versus wildtype animals ([5]; one hour): exceeded that found in wildtype animals

B5: SGSH: Sulfamidase with mannose-6-phosphate terminated glycans, not conjugated to guanidinoneomycin (protein, UniProt P51688 21-502, looked up)
N-sulphoglucosamine …: B4 N-sulphoglucosamine …
enzyme activity in brain extracts (uptake into the brain) [6]: not taken up efficiently
